US20050042624A1, “Tumor antigen” (Kyogo ITOH, priority 2001, published 2005)

Test system: KE4-CTL
Experiment: IFN-γ production from KE4-CTL against VA13 cells co-transfected with cDNA clone and HLA-A2601
Format: cell-based, human
Description: A gene encoding a tumor antigen recognized by KE4-CTL was isolated/identified from a human esophageal cancer cell line KE4 according to a known method [J. Exp. Med., 187: 277-288, 1998.] First of all, poly (A) ^+RNA of KE4 cells was converted to cDNA, ligated with a SalI adaptor so as to insert into the expression vector pSV-SPORT-1 (Invitrogen Corp.). Moreover, cDNA of HLA-A2601 was obtained by the reverse transcription-polymerase chain reaction (RT-PCR) and cloned into the eukaryotic cell expression vector pCR3 (Invitrogen Corp.).
A cDNA library of KE4 cells was pooled so that each pool contained 100 clones, and 200 ng of the cDNA pooled in each well and 200 ng of the HLA-A2601cDNA were mixed in 100 μl of lipofectoamine (Invitrogen Corp.)/Opti-MEM (Invitrogen Corp.) 1:200 mixture for 30 min. 50 μl of the obtained mixture was added to VA13 cells (1×10^4), and incubated for 6 h for co-transduction. Then, RPMI-1640 culture medium containing 10% FCS was added thereto and culturing was carried out for 2 days, followed by addition of KE4-CTL (2×10^5) to each well. After a further 18 h incubation, 100 μl of the supernatant was collected, and IFN-γ production was measured by ELISA.
A pool of cDNA library was screened with the criteria in which cDNA capable of enhancing IFN-γ production from KE4-CTL was judged as a positive one having CTL-activating ability. […]

B1: KE4-cl.18: cDNA clone from esophageal cancer cell line KE4 encoding KE4-18-PP (nucleic acid, listed as Homo sapiens)
DNA: GGGGCCGGGGCCGAGGCCGCGGAGCTCGCGGAGGCAAGGCCGAGGATAAGGAGTGGATGCCCGTCACCAAGTTGGGCCGCTTGGTCAAGGACATGAAGATCAAGTCCCTGGAGGAGATCTATCTCTTCTCCCTGCCCATTAAGGAATCAGAGATCATTGATTTCTTCCTGGGGGCCTCTCTCAAGGATGAGGTTTTGAAGATTATGCCAGTGCAGAAGCAGACCCGTGCCGGCCAGCGCACCAGGTTCAAGGCATTTGTTGCTATCGGGGACTACAATGGCCACGTCGGTCTGGGTGTTAAGTGCTCCAAGGAGGTGGCCACCGCCATCCGTGGGGCCATCATCCTGGCCAAGCTCTCCATCGTCCCCGTGCGCAGAGGCTACTGGGGGAACAAGATCGGCAAGCCCCACACTGTCCCTTGCAAGGTGACAGGCCGCTGCGGCTCTGTGCTGGTACGCCTCATCCCTGCACCCAGGGGCACTGGCATCGTCTCCGCACCTGTGCCTAAGAAGCTGCTCATGATGGCTGGTATCGATGACTGCTACACCTCAGCCCGGGGCTGCACTGCCACCCTGGGCAACTTCGCCAAGGCCACCTTTGATGCCATTTCTAAGACCTACAGCTACCTGACCCCCGACCTCTGGAAGGAGACTGTATTCACCAAGTCTCCCTATCAGGAGTTCACTGACCACCTCGTCAAGACCCACACCAGAGTCTCCGTGCAGCGGACTCAGGCTCCAGCTGTGGCTACAACATAGGGTTTTTATACAAGAAAAATAAAGTGAATTTAGCGTGAAAAAAAAAAAAAAAAAAAAAAAAAA
recognition of cDNA clone by KE4-CTL, enhancement of IFN-γ production: recognized by KE4-CTL in an HLA-A26-restricted manner and in a dose dependent manner of plasmid
